The target of series [1] is T1, Human Nrp2-b1b2 (Neuropilin-2 domains b1b2, residues 276–595) (human, UniProt O60462 276-595).
T1 sequence (looked up): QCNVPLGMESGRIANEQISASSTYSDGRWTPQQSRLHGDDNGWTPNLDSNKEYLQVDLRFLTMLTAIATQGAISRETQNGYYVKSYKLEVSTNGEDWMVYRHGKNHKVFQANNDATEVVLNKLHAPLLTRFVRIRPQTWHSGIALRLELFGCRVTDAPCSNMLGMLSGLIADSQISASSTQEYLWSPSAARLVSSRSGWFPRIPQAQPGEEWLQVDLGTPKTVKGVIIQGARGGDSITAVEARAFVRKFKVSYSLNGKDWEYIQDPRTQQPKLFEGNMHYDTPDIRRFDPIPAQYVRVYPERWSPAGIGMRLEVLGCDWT
The experiment in a line: differential scanning fluorimetry.

The target of series [2] is T2, AP-VEGF-C (alkaline phosphatase-tagged VEGF-C, residues 108–223) (UniProt P97953 108-223).
T2 sequence (looked up): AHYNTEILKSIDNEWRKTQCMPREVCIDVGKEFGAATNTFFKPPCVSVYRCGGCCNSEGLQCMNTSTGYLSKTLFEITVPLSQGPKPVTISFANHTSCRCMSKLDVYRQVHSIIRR
As to the kind of experiment: plate competition assay with AP-tagged ligand.

Series [3] deals with T1, Human Nrp2-b1b2 (Neuropilin-2 domains …). As to the kind of experiment: plate competition assay with AP-tagged ligand.
For series [4] the target is unchanged. The experiment in a line: crystal structure.
The series “crystal structure” concerns the molecule itself. As to the kind of experiment: crystal structure.

On to WRQVHSIIRR [processed VEGF-C C-terminus peptide (215-RQVHSIIRR-223)], for which, in series [1], binding was put at a Kd of 199 µM and the “Tm of Nrp2-b1b2 with 0.5 mM peptide (48.8°C without)” value came to 50.3 °C.

B1: human Nrp2-b1 (residues 276–430) (domain or fragment, UniProt O60462 276-430, looked up)
chain: QCNVPLGMESGRIANEQISASSTYSDGRWTPQQSRLHGDDNGWTPNLDSNKEYLQVDLRFLTMLTAIATQGAISRETQNGYYVKSYKLEVSTNGEDWMVYRHGKNHKVFQANNDATEVVLNKLHAPLLTRFVRIRPQTWHSGIALRLELFGCRVT
Molecule B1 yielded an IC50 in series [2] of 1.5 µM.
As to ATWLPPR [ATWLPPR, an optimized peptide inhibitor of Nrp], the IC50 in series [3] came to 10 µM.
As to SIIRR [VEGF-C C-terminus (219-SIIRR-223), the C-terminal five amino acids of mature VEGF-C], the binding result in series [4] was “binds”.

B2: Nrp2-b1b2/VEGF-C fusion (human Nrp2 residues 276–595 with VEGF-C 219-SIIRR-223 fused to its C-terminus) (other)
chain: QCNVPLGMESGRIANEQISASSTYSDGRWTPQQSRLHGDDNGWTPNLDSNKEYLQVDLRFLTMLTAIATQGAISRETQNGYYVKSYKLEVSTNGEDWMVYRHGKNHKVFQANNDATEVVLNKLHAPLLTRFVRIRPQTWHSGIALRLELFGCRVTDAPCSNMLGMLSGLIADSQISASSTQEYLWSPSAARLVSSRSGWFPRIPQAQPGEEWLQVDLGTPKTVKGVIIQGARGGDSITAVEARAFVRKFKVSYSLNGKDWEYIQDPRTQQPKLFEGNMHYDTPDIRRFDPIPAQYVRVYPERWSPAGIGMRLEVLGCDWTSIIRR
On to B2, for which, in the series “crystal structure”, the binding result is listed as “binds”.
